Experimental data taken from the supplement of paper PMC12042874.
± gives the uncertainty stated by the source.

assay: amyloid nucleation score (Sup35N fusion, yeast selection) (log enrichment); library NNK3; higher = more nucleation; inactive = no reads after selection
Summary of the method: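 The nucleation score is the DiMSum log enrichment of output over input reads, centred on the mode score of non-aggregating sequences. Only sequences with 100 or more input reads were scored, using Illumina sequencing of input and output plasmid inserts. Psi-negative yeast expressing Sup35N fused to peptides of 20 random codons were induced 24 hours with 100 μM copper sulfate and grown 7 days at 30°C on medium lacking adenine and uracil.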

Row | Substance | amyloid nucleation score
1 | LMRSREEGAPSDRRSQAYED | inactive
2 | LCFRCASLTESIGL | inactive
3 | IMHGSNMVRRGLVQY | inactive
4 | FSYSSRGVYYG | -0.649 ± 0.98
5 | GVFVEIRILYKGKWYTCMSK | inactive
6 | RLYNKSVTLAWRRFSGTKEL | inactive
7 | SEIRGNRNMTTEAPT | inactive
8 | LSQIEGWKCIGWVHYMVDSI | inactive
9 | GFRECTRNFFL | 0.361 ± 0.17
10 | NLGLQDFNCNWGFTYGGLTK | inactive
11 | PREARQHRVRRTGFSVVFVS | inactive
12 | DYATESFTVITLLGILLDRG | inactive
13 | FASIVFRCVLFTLFHPAVFR | inactive
14 | QRCCP | inactive
15 | GPSLVVNDLFGFCMVMYLND | inactive
16 | QYVIIYEKQLGWRKFDFNSV | inactive
17 | ASDSDTCCGFVRGAVYWRLT | -0.117 ± 0.84
18 | VYNQNAKVTN | inactive
19 | ALFSKYIYITFNYYFMQKWL | 2.54 ± 0.054
20 | TFWFD | inactive
21 | SLYMTVGESVPSMSASMYFG | inactive
22 | VPGQYWFIDGMTFGNDDTRS | inactive
23 | FSLLCFRSWANPIVTMYKYY | inactive
24 | VGILLFFYLTNVEQAVTFVR | inactive
25 | FVYSCNC | 2.34 ± 0.08
26 | GRVPLPCICDRWYYLEGWEV | -0.034 ± 0.96
27 | CQLGSSLGDDTEGSVAIPAV | inactive

Row | Substance | amyloid nucleation score
28 | EFMKGFAWISMFNLRSVLNS | inactive
29 | IKNHIIVRIDFGLYGEEKDS | 0.399 ± 0.19
30 | VVILGLHRVVDRRNAKVAKL | inactive
31 | LASIHCVHLMRTYVRVQPPM | 0.87 ± 0.26
32 | SKESTNSVRCVFITVSPTRR | 0.976 ± 0.21
33 | DSFVLSTTFLSSGTSAACLG | -1.32 ± 2.5
34 | LKPELIGMCGEGGLIAFRSQ | inactive
35 | WEDMVDNHE | 1.32 ± 0.087
36 | YTRGTWS | inactive
37 | MWYLTDWIDCFCLSNMNICT | 1.81 ± 0.063
38 | TSHPYNHVESSG | 0.972 ± 0.095
39 | QSLIEPSD | inactive
40 | IDCGGFDDIRVVSGDDEKMW | inactive
41 | VFLSWCAGSKGFSGVCRI | 0.6 ± 0.2
42 | MCQNANRYTGMSLVMFVGSV | 1.24 ± 0.12
43 | TLGVRIHCGEFNLYDHSRVK | 0.875 ± 0.26
44 | KFFQIIRASVF | inactive
45 | VTRGVLLCEPVTGMHQVACG | inactive
46 | CIKIIIFNVERLVALIIVSL | inactive
47 | DDMTYGSVCNKSGRTPLLPS | inactive
48 | IFSLYMGASCMWLMIVGWLD | inactive
49 | VFLKTVAKQFCLANVKRSH | inactive
50 | LCVFL | 1.1 ± 0.15
51 | WWTLKPGESVVRGLRVCGAP | inactive
52 | RFFSFFIT | 2.44 ± 0.055
53 | DYVNRCI | inactive
54 | SQLCITNSRW | inactive

Row | Substance | amyloid nucleation score
55 | SDYYMENISFCENMRDILFS | inactive
56 | IFCST | inactive
57 | ELRLMGFRGALDACLSLHPI | inactive
58 | VRVLWI | inactive
59 | LHTPIMRNYR | inactive
60 | GCSRWCFGDTGIE | inactive
61 | IYSVTMTRHVFFNGFQVQLV | inactive
62 | SYLNRPWD | inactive
63 | FLGSLVSLRCKWFVAF | 0.292 ± 0.75
64 | DKSDQSSRRFSGTRAYFSTM | inactive
65 | LFDIVSQITLWQGPTHAFFK | inactive
66 | VLSCVAIRSYILHKVSVGIC | inactive
67 | YAYEIRRLT | inactive
68 | LFTKRSYCCSCVVSGSEWAY | 0.852 ± 0.21
69 | KLGMSPSSLYSPAR | inactive
70 | LRGCLKSVIDTSLG | inactive
71 | VLFMMMERHSRSRSRGSLQ | 0.858 ± 0.23
72 | INCLDFYTTVYNTRSWIFVH | inactive
73 | ILGEWLFCSIIFWGVWDYAG | inactive
74 | YAVLNELVTRSCLYAVSFTI | inactive
75 | HSIIRVSFLDMVCAGNSIVR | -0.504 ± 1.9
76 | RACHFQVIMCMICALCGFAS | 1.91 ± 0.079
77 | IIYRKVVKRCAWITDKEIPG | inactive
78 | HSTLSLMHDSYRACSWKCNA | inactive
79 | FIKLKGL | inactive
80 | IHRMMAYDFCRNLYFSEQWG | inactive
